{"source": "paper PMC5231390", "about": "“Two-Component Signaling System VgrRS Directly Senses Extracytoplasmic and Intracellular Iron to Control Bacterial Adaptation under Iron Depleted Stress” (PLoS Pathogens, 2016)", "molecules": {"B1": {"name": "PtdvA 50 bp, 5'-FAM (MST) (dsDNA)", "DNA 1": "GCCCGATTTCACGTCTTTCTTCTTTTTCATTAACGGGACTTTAATTCCTG", "DNA 2": "CAGGAATTAAAGTCCCGTTAATGAAAAAGAAGAAAGACGTGAAATCGGGC"}}, "key": {"[1]": {"target": "T1, VgrS (full-length, inverted membrane vesicles) (Xanthomonas campestris, UniProt Q8P666)", "T1 construct": "gene colS", "settings": "100 μM ATP with 10 μCi [γ-32P]ATP, 5 mM MgCl2, pH 7.8, 28°C, labelled compound"}, "[2]": {"target": "T2, VgrR (Xanthomonas campestris, UniProt Q7CLQ6)", "T2 construct": "gene colR; full-length, C-terminal His6, pET30a in E. coli BL21(DE3), Ni-NTA purified", "experiment": "phosphorylation of VgrR seen as raised VgrS affinity in MST", "assay_type": "biochemical", "settings": "phosphodonor; indirect read-out (VgrR-VgrS binding)"}, "[3]": {"target": "phosphorylated VgrR (phosphorylated by acetyl phosphate) (Xanthomonas campestris pv. campestris)", "experiment": "MST"}, "[4]": {"target": "VgrR (Xanthomonas campestris pv. campestris)", "experiment": "MST"}, "[5]": {"target": "VgrR (ColR), unphosphorylated (Xanthomonas campestris pv. campestris, UniProt B0RPP4 1-225)", "experiment": "MST; 10 mM MgCl2; EMSA: 10 mM Tris-HCl pH 7.5, 50 mM KCl, 1 mM DTT, poly(dI-dC), room temp; MST: 50 mM Tris-HCl pH 7.4, 150 mM NaCl, 10 mM MgCl2, 0.05% Tween-20", "settings": "protein: recombinant; tags: C-terminal His6 (pET30a); chain copies: 2; label: 5'-FAM on one strand"}}, "data": [{"molecule": "Nc1ncnc2c1ncn2[C@@H]1O[C@H](COP(=O)(O)OP(=O)(O)OP(=O)(O)O)[C@@H](O)[C@H]1O", "note": "[ATP]", "values": [{"measurement": "in vitro autophosphorylation, SDS-PAGE autoradiography", "setting": "[1]", "result": "VgrS has an autokinase activity by phosphorylating itself in the presence of ATP"}]}, {"molecule": "CC(=O)OP(=O)(O)O", "note": "[acetyl phosphate]", "values": [{"measurement": "phosphorylation of VgrR seen as raised VgrS affinity in MST", "setting": "[2]", "result": "Phosphorylation of VgrR by acetyl phosphate significantly increased the VgrR-VgrS binding affinity"}]}, {"molecule": "VgrS, membrane-embedded, full-length (receptor)", "values": [{"measurement": "Kd", "setting": "[3]", "result": 260, "unit": "nM"}, {"measurement": "Kd", "setting": "[4]", "result": 4300, "unit": "nM"}]}, {"molecule": "B1", "values": [{"measurement": "Kd", "setting": "[5]", "result": "189 ± 6.22", "unit": "nM"}]}]}
